The record followed here is a protein production outcome set (Wang et al. 2014).
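Further: failed if final PepcDB status was selected cloned or expressed and not failed if soluble or beyond.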

The nature of this data set: label from the status in PepcDB records.
Turning to “MIDDKYFDVFNDKSTLQAIAVPERLERRTTVTDRIDRNGTRHEAVVPVGAAYTLLPKQFCKPAAKNYLFELDDFQKISVCSLERDESVLVSAHTSSGKTVVAEYAIAMSLRSNQRVVYTSPIKALSNQKYRELLSEFSDVGLMTGDVTINPTASCLVMTTEILRNMLYRGGEVVREIHWIIFDEIHYMRDKERGVVWEETIILLPKHVRMVFLSATIPNALEFAEWISHIQSQVVHVVYTEKRVTPLVHYFRSNKLYKIKDAKFHKSNFLSAMRSIRKRNVGPREVGEAIGDASLPVVVFSFKRKDCERFAMKLDGRYLTDEEARTVQTIFTNAIMSLRKEDREIPIIQNILPLLMRGIGIHHSGLLPIIKEVVEILFQEGLLKVLFATETFSIGLNMPAKSVVFTALKKFDGEAMRLVSSGEYIQMSGRAGRRGIDSMGIVISIISEPITYKEASRLFSASSDNLVSAFRLTYNMLLNLMRVEGLDPLYLISRSFHHFQSYKKALAEEETLHLMYRRLEDIEPNETACLYRKREEKKVERGKRLVEAFGKYLKKGRVVDLFIPRNGPSITIRNAIVSKAREKVQCMVGTEEGVYMCSFPLHYIDCVYDIRVKLDVRVFTKSFEKIAVRDELDEEIEEIEGKILSMDPEWSFDFCVLCGKSSVGCLVSCSRELIDSEAVIVQMPENTKRYGESLEAARYPSTEMKSNMDGARAFFVNETLRQRYLEKLLELNSLKEIYHMRECKKMIEVLKKLEYCDDTTVLIKGRMACEISSGDELVLTEMIFNGDFAGIPVEHFVPLLSCIVFEEWDSDSFVLSDENKLYYRLLSDSVEKVCKVLKSCGIEIDPAAYLKRFSYELMDVVRMWVCGCTFISICSKTSIFEGSIIRTFKRLEELLRQLSSAARVIGNTELENMFALGIVKIKRDIVFANSLYI”, the protein production result is given as “failed”. In the case of “MIDLDPRLAADTHPVTQWPLSQVRLMDDVRFPWLVLIPDRPGLVEIFDLPAEDQDKMWREVAHAAATLKTLSGAHKINIGALGNQVSQLHIHIIARRPDDGAWPGPVWGVGERQRYDQAELAEFLSGLRAQLIAPGQGIVEEGQTR” it was “failed”; in that of “MIDMFPMEKGEEQETYELIVRVFHKYVAPVYSENGVARFLGMLSPEGLSEMNNGKNSFVIVARDQSKIIGMISVINDSHIALFFVSPRYQGKGIGKNILDEAIKNCLNRNPELSAVTVSSSPNSKSFYEEAGFEVIGNEINEEGLRFTPMRKLLRQLEHHHHHH”, “failed”; in that of “MIDRRRVRHSFHRQALEYDAHAAVQKRVVERFLQILDDEVGSPLRILDVGAGTGLLARQLADCHPAALLSCVDLAPGMAATARQRLGSRALVAVADAEHLPFAGASFDCVVSTSTFQWLTTLDAAFGEVWRVLAPGGLFAFALFGHGTFHELKDSYRSALTAVGREDEDRTQRFFTEAEAGAALERTGFGVRRLCVEDEVEWHPDVPAFLRSVKRVGAGNASPLRGRGLAERRVMVEMMRVYGERYGGERGIPATYTVIYGVGVKSGRK”, “failed”. In the case of “MIDTIIISLIAFSILVSLWRGFISEVLSLSGWIAAFFVASTFYPYLSSYLNEIDSVYLQNSEYLRNGIAAAILFIITLILCGIVNALLSKIINTTGLSATDRVLGIAFGALRGILIVAAILFFIDTFTTSNQTELWQESQLIPHFDFIVKWFFEQLQANSSFLNSTTTTK” it was “failed”; in that of “MIDTLKNIKVKDVMTKNVITAKRHEGVVEAFEKMLKYKISSLPVIDDENKVIGIVTTTDIGYNLIRDKYTLETTIGDVMTKDVITIHEDASILEAIKKMDISGKKEEIINQLPVVDKNNKLVGIISDGDIIRTISKII”, “not failed”. In the case of “MIEEAPPHPSAPMAASPSVTTALKHAPLGIAIFDNQMRYLAASRQYLTDQHLPPDLPLIGRLHYDAFPEVPQKWRDLHARVLAEGVELRHEGDPYVDREGRTQWIRWSMAPWRTDGGGIGGLVLYTEVVT” it was “failed”; in that of “MIEFLLNYYFMPFNLSVIALLILSMAETIGIYIGLRPSTFLKKFLPRWLSNSPLVNVKFSKVLILVFFLINFSFAGYFLQLCVFAQQQFFISPFYLIIPALIIGIFFTVFMIHCLDQVIKPQVEHQYSSLLGRLATISSGSARPGFSAQARVRDEFGQLHYVQVEPEFGELELQSQVILIRFRQTHYIAKRISASNHLFTPE”, “failed”; in that of “MIEIKTLTNNDFNEYKRLVSTVNEEFTQDSHYSQTMTDTLIHDILNQGSPKCIVFGCYENETLIATAALEQIRYVGKEHKSLIKYNFVTNNDKSINSELINFIINYARQNNYESLLTSIVSNNIGAKVFYSALGFDILGFEKNAIKIGNTYFDEHWLFYDLINK”, “failed”. For “MIEKIVKEMTLKEKVGQLNQHLYGWQCYQKVNGKYELTDLFKEHVKEYGGVGAIYGILRADAWSQINRENGISREDSKIVITMIQEYIKKHSRFEIPALISEECVHGHMALGAPVFPTNLAMGMTWNPDLMERITHNVSQELAAKGGNLALFTGFDVLRDPRWGRSEECFSEDAYLTSCMTSAAVHGFQKEKNGVAVVVKHLCAQGGCVGGHNSDAALIGPRELREIHLPPVKAAIDAGAKAVMAAYNEIDGIPCHINKALLFETLRKEYDFSGIVMADGCALDRLLLLDDDILKVGSLALKAGVDLSLWDNVYLRLDEAIKQGYLTEEELDQAVLRVLRLKEELGLWEELNTYSLPEASDLLLQAARECQVLLKNNDSLLPLSSKQKIAVIGPNANHYLNQLGDYTAYQNKSDIVTVYDGICQKTEISPIYVQGCSIRGRKFDIEPALVAAKAADIVILVLGGNSTRLYQDTFENNGAVKANQENQMNCGENIDLASLELEGYQNELLLALKEVNPHIVTVLIQGRPHVINTVLKHSQAVLASFYPGSRGGEGIADVLFGDYNPSGHLSVSIPQHVGQLPCYYNHKHNGAQKDYVDMPGEALLPFGYGLSYSQFIYRDIKVPKAIKITDLLENGIDLQLEIYNNSTYDGEDVIQVYLKDHQASVVSRVIELKAFNKVKIQAYQSKQISIHLTSDAFAIWNYEMKYLVEPGDVSICIGVDSKHYQEFKLTLVK”, the protein production result was “failed”.

Turning to “MIELIIGAVLLSLLIYGIFIEPHLMKVRHVKIAQKQNLKIAHFTDTHFAWHTTSRRFKKFARNIANEQPDLIIFSGDLFDKVAWAKNRDWTDLLTILSELKAPLGKFAILGNHDFDDEKSSRFVEEFLEKAGFVLLKNSSVVKDNLSISGVDDWREGRPDFELEPIDATFSLLALHEPDTILDMETIKEFDLILSGHSHGGQIRIGNWRLRNKGSSSADAGLYQLNDRTKLYVNRGIGLTFLPIRFGVPPEIVYYYI”, the protein production entry was “failed”. Turning to “MIENSSPYTSEHFHYTVTDIKDLTKLGAIYDKTKKYWVYQGKPVMPDQFTFELLDFLHQLTHLSFSKMKALLERSHSPYYMLNRDRTLKNITETCKACAQVNASKSLEHHHHHH”, the protein production result is on record as “not failed”. For “MIEQELTYQDLRIPSSEIYEAMGYKDSIPDQMVIDETNTLLKRVIPLLRPRFAFFFMEGTLDIEKETLSVQSIHPPTVNPIQDTIPTRSPEQNTFSTQSKSTVFSVGKTIARQLRGSEAFVFFAATAGTEFEVFQHTLQQEEDMVKIYIADSLGSIIAEKTADCMEVALAEYIREKNWKHTNRYSPGYCGWHVSEQQKLFPLFPIAAPCGIRLTDSSLMVPIKSVSGVIGTGTNVRKLEYTCGLCTYENCYRKRKHRLEHHHHHH” the value was “failed”; for “MIERLELRNLTVFTGLTLELSPKINVIIGENGTGKTHLLKAAYGLCAGAPLFKNKPDTGDDELEAALTAKLLRLFMPLDDKLGKMHRQGATDQAYLSAKFAGGQKIAATFFNNSKALAVQDRANYEKYQAEAVFIPTKEVLSFMKGFNSLYEKYGLSFDQTYQDICLLLDLPEVRPETLHEKSKWAMAEIEGICGGRFVFYGGGKVTFKTENAEYSANSMAEGFRKAGILSRLLETGAIQPGVSGPLFWDEPESNLNPKLMKLLVQILLELSRNGQQIILATHDYVLLKWFDLLMDKGKDDHVRFHSLYRDADTSEIKVASTEDYLKITPNPIDEAFGFLINQEIENDMGGLGK”, “failed”. As for “MIEYRIFRFPMYPLLARFFSSHQQALGVLFALLSAIGFSAKAIFIKLAYVEPVDAVTLLALRMVFSVPFFVFAMLHGRAQATPMARHDWLAVLLLGLVGYYLASFLDFLGLQYISAGLERMILFLYPTMVVLISALVFRAAIGRRVWFALLLSYVGIGLVFVHDFHITSDGLFMGSSLVFASALAYAIYLIGAGHTIARIGSMRFTAYAMTVACLACIAQFLLTHPLDDLQQSTRVYGLSIGMALFSTVMPAFALAAAMRRIGSMQTSMIGALGPVATIYLAYVFLAEQLSLTQLAGSGLVLIGVMMISMRKME”, the protein production result is “failed”.

Turning to “MIFMGNKVKYNLKNVHAAKLTETDSDGTTTFSYAEPKAIPGAVSISLDAEGETSPFYADGIVYFRSVTNNGYSGDLEIALIPEWFRTEILQEKLDAKGVLVENSGVGESVKFALLFEFDGDVNAIRHVLYNCSASRPSIESETKEDTIEPGTETLSITADPRSDGLVKARTGDTTDSGTYTNWYKAVYTPTEEEPEETSGEDESV”, the protein production result is “failed”.

On to “MIFYKSKRLAFFLTSDIVLILLSVYLAFSLRFSGDIPSIFYHGMMVSAIILLVLKLSFLFVFRIYKVAWRFFSLNEARKIFIALLLAEFCFFLIFYFFSDFFNPFPRSAIVIDFVLSYMFIGTLRISKRMLVDFKPSRMKEEETPCIVVGATSKALHLLKGAKEGSLGLFPVGVVDARKELIGTYCDKFIVEEKEKIKSYVEQGVKTAIIALRLEQEELKKLFEELVAYGICDVKIFSFTRNEARDISIEDLLARKPKDLDDSAVAAFLKDKVVLVSGAGGTIGSELCKQCIKFGAKHLIMVDHSEYNLYKINDDLNLYKEKITPILLSILDKQSLDEVLKTYKPELILHAAAYKHVPLCEQNPHSAVINNILGTKILCDSAKENKVAKFVMISTDKAVRPTNIMGCTKRVCELYTLSMSDENFEVACVRFGNVLGSSGSVIPKFKAQIANNEPLTLTHPDIVRYFMLVAEAVQLVLQAGAIAKGGELFVLDMGKPVKIIDLAKKMLLLSNRNDLEIKITGLRKGEKLYEELLIDENDAKTQYESIFVAKNEKVDLDWLNKEIENLQICEDISEALLKIVPEFKHNKEGV”, for which the protein production result was “failed”. On to “MIGALRHACPGSRAAAFVLSGLQTMTNEVKSAVRVIQILEYFDTVRREAGVLEISRALGFPASSTAGILRSLQRLSYLVQDEQRLYRPTPRVTLLGSWIDPLLAHDGPLMALMSHLSKATGETIILALQVDAGARYIHIIPSTQRVRLHVNVGDVRPLLTSGTGRLFVSTMEPDQVRRAVFRHNALRGANEPEINLSTVTRDATQIRKNGYATSLDRLVPGVGIIAALLPEREGTRPMAVAVGGPSVTIRARTAELASLLREGIGQYLPHLGNAGDQS”, for which the protein production entry is listed as “failed”. For “MIGELVKDKILIKNIEDARLIYKMGYYGKPIGISKPKSAEEINSELILSLIEGVYLVKKGKLEIVSNGERLDFERLYQIGVTQIPRFRILYSVYEDLREKGYVVRSGIKYGADFAVYTIGPGIEHAPYLVIALDENSQISSNEILGFGRVSHSTRKELILGIVNLTNGKIRYIMFKWLKM” the value was “not failed”; for “MIGHRISRLGSTIVKQLAREGYLATYGTKNLHRSYGHYLQSLPVVPRQARTSQEAWFLKSHKFCTSSTTSSENGDEETEKITIIFVDKDGEEIPVKVPIGMSVLEAAHENDIDLEGACEASLACSTCHVIVMDTEYYNKLEEPTDEENDMLDLAFGLTETSRLGCQVIARPELDGVRLAIPSATRNFAVDGFVPKPH”, “failed”; for “MIGLSFVSLLTIVCAALGCAVLTWALMPLLIRYALARPNARSSHKVPTPQGAGIAVVAATLAVTALAVGPTTPAFLGLIPLFVAAIVIGIVGAVDDIRPIPVLPRFALQALCVGAVVLTLPSDQQIIPALPLWLERAALLIGGLWFINLVNFMDGLDWMTVAEGLPVTAALLVFGLLGALTQSPMLLAAALGGALLGFAPFNRPGAARVFLGDVGSLPIGLLLGWCLLQLALQGHVAATLLLPLYYLADSTLTLLRRMMRREPFWLAHRSHFYQRATDNGFSVREVVGLVCLTNLALAALAGVSIALNSVAADGLLLAVGAAIVAALLMRFADRKA”, “failed”.
